Test results published in patent US20080181886A1, “Polypeptides That Bind Baff And/Or April” (Genentech, Inc., priority 2004, published 2008).
Numbering of substitutions follows the chain as printed. Numbers in names are those of the source.

B1: TACI_d2 Y79D (receptor)
chain: SLSCRKEQGKFDDHLLRDCISCASICGQHPKQCAYFCENKLR
B2: TACI_d2 R84P (receptor)
chain: B1 chain with D12Y, R17P
B3: TACI_d2 R84G (receptor)
chain: B1 chain with D12Y, R17G
B4: TACI_d2 Y79S (receptor)
chain: B1 chain with D12S
B5: TACI_d2 H96P (receptor)
chain: B1 chain with D12Y, H29P
B6: TACI_d2 Q95P (receptor)
chain: B1 chain with D12Y, Q28P
B7: TACI_d2 H96D (receptor)
chain: B1 chain with D12Y, H29D
B8: TACI_d2 L83P (receptor)
chain: B1 chain with D12Y, L16P

Each binder was assayed against Murine APRIL (mouse) (UniProt Q9D777) (assay: NNS library, phage display).
Chain of Murine APRIL (mouse) (Q9D777 105-241 limits assumed): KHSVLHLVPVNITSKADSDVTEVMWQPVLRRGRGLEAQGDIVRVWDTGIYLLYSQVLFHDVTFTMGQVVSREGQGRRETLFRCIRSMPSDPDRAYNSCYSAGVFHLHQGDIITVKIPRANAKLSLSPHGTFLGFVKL

Row | F' APRIL | Binder
1 | 0 | B1

Each binder was assayed against human BAFF (human) (UniProt Q9Y275) (assay: NNS library, phage display).
Chain of human BAFF (human) (Q9Y275 82-285 limits assumed): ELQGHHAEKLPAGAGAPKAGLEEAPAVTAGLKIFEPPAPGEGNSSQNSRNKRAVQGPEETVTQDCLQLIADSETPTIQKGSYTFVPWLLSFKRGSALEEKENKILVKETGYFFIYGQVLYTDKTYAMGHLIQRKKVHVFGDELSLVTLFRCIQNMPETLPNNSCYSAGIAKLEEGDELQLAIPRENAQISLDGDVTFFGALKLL

Row | F' BAFF | Binder
2 | 0 | B2
3 | 0 | B1
4 | 0 | B3
5 | 0 | B4

The binders below were run against Murine APRIL (mouse) (UniProt Q9D777) (assay: shotgun scan, phage display).

Row | F (APRIL) | Binder
6 | > 8.2 | B1
7 | 48 | B5

These binders were tested against human BAFF (human) (UniProt Q9Y275) (assay: shotgun scan, phage display).

Row | F (BAFF) | Binder
8 | > 54 | B6
9 | > 29 | B7
10 | > 52 | B2
11 | 15 | B8
12 | > 9.5 | B1
13 | 13 | B3
14 | > 36 | B4
15 | 20 | B5
